Reference: the nanobody polyreactivity screen of Harvey et al. (2022)

Assay: yeast display, Sf9 membrane polyspecificity reagent, FACS + sequencing; frameworks hold sequencing errors
Outline: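 A synthetic nanobody library was expressed on Saccharomyces cerevisiae BJ5465 by galactose induction for 36–48 hours. The library was stained for 1 hour at 4 °C with 10% biotinylated, detergent-solubilized Sf9 membrane reagent and enriched with streptavidin microbeads before FACS. Low and high (top ~1%) gates were set on anti-HA fluorescence for expression and streptavidin fluorescence for reagent binding, and each polyreactivity label reflects the gate of origin.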

| Sequence | polyreactivity (PSR sort gate) |
| --- | --- |
| QVQLVESGGGLVQAGGSLRLSCAASGFTFARYAMGWYRQAPGKERELVAAIDRSGGSTYYADSVKGRFTISRDNAKNTVFLQMNSLKPEDTAVYYCNAVSSFTSPRYDYWGQGTQVTVSS | high polyreactivity |
| QVQLVESGGGLVQAGGSLRLSCAASGFTFARYAMGWYRQAPGKERELVAAISSRGGRTYYADSVKGRFTISRDNAKNTVYLQMNSLKPEDTAVYYCNAGYAHTYDYWGQGTQVTVSS | high polyreactivity |
| QVQLVESGGGLVQAGGSLRLSCAASGFTFARYAMGWYRQAPGKERELVAAITYSGSGTYYADSVKGRFTISRDNAKNTVYLQMNSLKPEDTAVYYCYPVTRSARSYDYWGQGTQVTVSS | high polyreactivity |
| QVQLVESGGGLVQAGGSLRLSCAASGFTFARYAMGWYRQAPGNERELVAAITRRGGSTYYADSVKGRFTISRDNAKDTVYLQMNSLKPEDTAVYYCAADSSSGSDYWGQGTQVTVSS | high polyreactivity |
| QVQLVESGGGLVQAGGSLRLSCAASGFTFARYAMGWYTKAPGKERELVARISSDGGGTDYADSVKGRFTISRDNAKNTVYLQMNSLKPEDTAVYYCAARFPGYHYFKYYYWGQGTQVTVSS | low polyreactivity |
| QVQLVESGGGLVQAGGSLRLSCAASGFTFARYTMGWSRQAPGKEREFVAAISWSGGRTYYADSVKGRFTISRDNAKNTVYLQMNSLKPEDTAVYYCAAEYWGVYRGFVSSFDYWGQGTQVTVSS | high polyreactivity |
| QVQLVESGGGLVQAGGSLRLSCAASGFTFARYTMGWYRQAPGKERELVAAISSRGSSTYYADSVKGRFTISRDNAKNTVYLQMNSLKRVDTAVYYCAAPPRYGYDYWGHGTQVTVSS | high polyreactivity |
| QVQLVESGGGLVQAGGSLRLSCAASGFTFARYTMGWYRQEPGKERELVAAISSRGSSTYYADSVKGRFTISRDNAKNTVYLQMNSLKPEDTAVYYCAAPPRYGYDYWGQGTQVTVSS | high polyreactivity |
| QVQLVESGGGLVQAGGSLRLSCAASGFTFAVYVMGWSRQAPGKERELVATISFSVGSTYYADSVKRRFTISRDNAKNTVYLQMNSLKPEDTAVYYCNADPPPEYYPDKDNYWGQGTQVTVSS | low polyreactivity |
| QVQLVESGGGLVQAGGSLRLSCAASGFTFAWNAMGWYRQAPGKERELVATIDVSGGSTYYADSVKGRFTISRDNAKNTVYLQMNSLKPEDTAVYYCAAVELPEGGYDYWGQGTQVTVSS | low polyreactivity |
| QVQLVESGGGLVQAGGSLRLSCAASGFTFAWYTMGWYRQAPGKERELVAGIDWSGGSTYYADSVKGRFTISRDNAKNTVYLQMNSLKPEDTAVYYCNAAGLYYVYPGYDYWGQGTQVTVSS | high polyreactivity |
| QVQLVESGGGLVQAGGSLRLSCAASGFTFAYNAMGWYRQAPGKERELVAAISGRGVSTYYADSVKGRFTISRDNAKNTVYLQMNSLKPEDTAVYYCAKRYRYWTTERYDYWGQGTQVTVSS | high polyreactivity |
| QVQLVESGGGLVQAGGSLRLSCAASGFTFAYNAMGWYRQAPGKERELVAAISSSGGRTYYADSVKGRFTISRDNAKNTVYLQMNSLKPEDTAVYDCATRPKVAYEYDYWGQGTQVTVSS | high polyreactivity |
| QVQLVESGGGLVQAGGSLRLSCAASGFTFAYYAMGWYRLAPGKERELVAAINRSGGSTYYADSVKGRFTISRDNAKNTVYIEMNSLKPEDTAVYYCAAARPSLRDGVAHYYWGQGTQVTVSS | high polyreactivity |
| QVQLVESGGGLVQAGGSLRLSCAASGFTFAYYAMGWYRQAPGKERELVAAINWSGTRTSYADSVKGRFTISRDNAKNTVYLQMNSLKPEDSAVYYCAADSSLRYDYWGQGTQVTVSS | high polyreactivity |
| QVQLVESGGGLVQAGGSLRLSCAASGFTFAYYAMGWYRQAPGKERELVASISYNGGITNYADSVKGRFTISRDNAKNTVYLQMNSLKPEDTAVYYCAAGVFFFTFDYWGQGTQVTVSS | low polyreactivity |
| QVQLVESGGGLVQAGGSLRLSCAASGFTFAYYAMGWYRQAPGTERELVAAITYSGGSTYYADSVKGRFTISRDNAKNTVYLQMNSLKPEDTAVYYCNAYDRRYYYGRWYGEFDYWGQGTQVTVSS | low polyreactivity |
| QVQLVESGGGLVQAGGSLRLSCAASGFTFCKYTMGWYRQAPGKERELVAAITNSGTSTYYADSVKGRFTISRDNAKNTVYLQMNSLKPEDTAVYYCARDNEPDYYSYPYDYWGQGTQVTVSS | low polyreactivity |
| QVQLVESGGGLVQAGGSLRLSCAASGFTFCQYVMGWYRQAPGKERELVAAINWSGGSTYYADSVKGRFTISRDNAKNTVYLQMNSLKPEDTAVYYCNAVKAPYLRYDYWGQGTQVTVSS | high polyreactivity |
| QVQLVESGGGLVQAGGSLRLSCAASGFTFDDYAMGWYRQAPGKERELVATITNSDSSTYYADSVKGRFTISRDNAKNTVYLQMNSLKPEDTAVYYCNADGEGADSDYDYWGQGTQVTVSS | low polyreactivity |
| QVQLVESGGGLVQAGGSLRLSCAASGFTFDDYTMGWYRHAPGKERELVAAITSSGDSTYYADSVKGRFTISRDNAKNTVYLQMNSLKPEDTAVYYCAAQSYPFDRDYWGQGTQVTVSS | high polyreactivity |
